Three molecules from article PMC3115401 (Traffic (Copenhagen, Denmark), 2011) can be followed below.

The target in one assay is T1, GST-Kap60 (S. cerevisiae, UniProt Q02821 1-542).
T1 sequence (looked up): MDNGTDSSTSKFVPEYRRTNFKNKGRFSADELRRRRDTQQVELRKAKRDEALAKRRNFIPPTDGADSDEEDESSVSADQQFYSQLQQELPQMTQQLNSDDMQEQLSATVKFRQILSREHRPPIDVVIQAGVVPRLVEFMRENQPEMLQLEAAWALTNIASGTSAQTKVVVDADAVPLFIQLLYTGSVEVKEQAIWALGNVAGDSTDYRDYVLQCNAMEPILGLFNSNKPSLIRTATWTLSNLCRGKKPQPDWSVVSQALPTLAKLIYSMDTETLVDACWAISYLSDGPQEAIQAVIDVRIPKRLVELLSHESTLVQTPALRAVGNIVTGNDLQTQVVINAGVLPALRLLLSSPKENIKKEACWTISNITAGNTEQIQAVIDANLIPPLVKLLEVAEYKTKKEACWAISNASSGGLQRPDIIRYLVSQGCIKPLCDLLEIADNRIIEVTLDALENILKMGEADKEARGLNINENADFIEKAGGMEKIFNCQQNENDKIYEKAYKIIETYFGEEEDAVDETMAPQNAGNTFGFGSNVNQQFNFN
As to the kind of experiment: pull-down.

The target in the next assay is T2, GST-Rtt109 (S. cerevisiae, UniProt Q07794 1-436).
T2 sequence (looked up): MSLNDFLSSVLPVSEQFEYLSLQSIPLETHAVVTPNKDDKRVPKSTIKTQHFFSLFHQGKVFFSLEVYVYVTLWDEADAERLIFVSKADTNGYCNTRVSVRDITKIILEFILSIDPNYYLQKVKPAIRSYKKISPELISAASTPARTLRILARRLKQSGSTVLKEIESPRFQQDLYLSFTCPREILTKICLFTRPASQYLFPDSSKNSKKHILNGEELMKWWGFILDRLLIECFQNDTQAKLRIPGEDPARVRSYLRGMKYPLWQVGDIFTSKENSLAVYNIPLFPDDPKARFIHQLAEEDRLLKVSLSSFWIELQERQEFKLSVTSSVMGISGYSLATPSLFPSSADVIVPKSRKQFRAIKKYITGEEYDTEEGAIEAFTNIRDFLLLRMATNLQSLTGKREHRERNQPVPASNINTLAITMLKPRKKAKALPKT
As to the kind of experiment: pull-down.

B1: MBP-Vps75 wild type (natural protein, S. cerevisiae, UniProt P53853 1-264, looked up)
chain: MMSDQENENEHAKAFLGLAKCEEEVDAIEREVELYRLNKMKPVYEKRDAYIDEIAEFWKIVLSQHVSFANYIRASDFKYIDTIDKIKVDWLALESEMYDTRDFSITFHFHGIEGDFKEQQVTKVFQIKKGKDDQEDGILTSEPVPIEWPQSYDSINPDLIKDKRSPEGKKKYRQGMKTIFGWFRWTGLKPGKEFPHGDSLASLFSEEIYPFCVKYYAEAQRDLEDEEGESGLSADGDSEDDDGSLGEVDLPLSDEEPSSKKRKV
B1: the binding result with GST-Kap60 and with GST-Rtt109 was “binds” each time.

B2: MBP-Vps75(K260G, K261G) (natural protein, S. cerevisiae, UniProt P53853 1-264, looked up)
chain: MMSDQENENEHAKAFLGLAKCEEEVDAIEREVELYRLNKMKPVYEKRDAYIDEIAEFWKIVLSQHVSFANYIRASDFKYIDTIDKIKVDWLALESEMYDTRDFSITFHFHGIEGDFKEQQVTKVFQIKKGKDDQEDGILTSEPVPIEWPQSYDSINPDLIKDKRSPEGKKKYRQGMKTIFGWFRWTGLKPGKEFPHGDSLASLFSEEIYPFCVKYYAEAQRDLEDEEGESGLSADGDSEDDDGSLGEVDLPLSDEEPSSGGRKV
Turning to B2, the binding result with GST-Rtt109 is listed as “binds”.

B3: MBP-Vps75(1–222) (domain or fragment, S. cerevisiae, UniProt P53853 1-222, looked up)
chain: MMSDQENENEHAKAFLGLAKCEEEVDAIEREVELYRLNKMKPVYEKRDAYIDEIAEFWKIVLSQHVSFANYIRASDFKYIDTIDKIKVDWLALESEMYDTRDFSITFHFHGIEGDFKEQQVTKVFQIKKGKDDQEDGILTSEPVPIEWPQSYDSINPDLIKDKRSPEGKKKYRQGMKTIFGWFRWTGLKPGKEFPHGDSLASLFSEEIYPFCVKYYAEAQRD
B3: in the assay with GST-Rtt109, the binding result is listed as “binds”.
